From patent US20240287190A1 (THERANOTICS, published 2024)
Residue numbers refer to the chain shown, from its start. Blank lines part the entries; values can stand above or below the binder they belong to.

What was measured:
[1] = target: T1, recombinant human TGFβ1 protein (R&D Systems, Cat #7754-BH-025/CF) (human, UniProt P01137 279-390); assay: bridging ELISA; plate-coated TGFβ1, bispecific titrated, detected with His-tag human B7-H3 and anti-His-HRP
T1 construct: Bought protein
Method: After coating a plate with the recombinant human TGFβ1 protein (30 μL, 0.5 μg/ml) in 1×PBS solution, the plate was covered and cultured overnight at 2 to 8° C. Thereafter, the wells were washed once with 150 μL PBS per well, and blocked with 120 µL of blocking buffer (1×PBS-T w/3% BSA) per well for 2 hours at room temperature. The blocking buffer was discarded and 4-fold diluted antibody solution was added by 30 μL, followed by reaction for 2 hour at room temperature. Then, the wells were washed three times with 150 μL of washing buffer (1×PBS-T) per well.
Thereafter, 30 μL of His-tag human B7-H3 protein diluted in the blocking buffer was added to each well, and cultured at room temperature for 2 hours. Thereafter, the wells were washed three times with 150 μL of washing buffer per well. 30 μL of HRP conjugate of anti-His tag antibody diluted in the blocking buffer was added to each well, and reacted at room temperature for 1 hour. Thereafter, the wells were washed three times with 150 μL of washing buffer per well, the HRP reaction was developed using TMB, and the reaction was stopped with 30 μL 1 N HCl. Then, the optical density (OD) was measured at 450 nm.

[2] = target: T2, recombinant human TGFβ3 protein (R&D Systems, Cat #8420-B3-025/CF) (human, UniProt P10600 301-412); assay: ELISA; plate-coated TGFβ3, bispecific titrated, anti-human IgG1 Fc-HRP
T2 construct: Bought protein
T2 sequence (looked up): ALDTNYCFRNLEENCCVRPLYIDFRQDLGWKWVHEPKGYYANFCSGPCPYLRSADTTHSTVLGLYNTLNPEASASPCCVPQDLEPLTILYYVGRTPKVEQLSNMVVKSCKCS
Method: (§1) After coating a plate with each of recombinant human TGFβ1 protein (R&D Systems, Cat #7754-BH-025/CF) and TGFβ3 protein (R&D Systems, Cat #8420-B3-025/CF) (30 μL, 0.5 μg/ml) in 1×PBS solution, the plate was covered and cultured overnight at 2 to 8° C. Thereafter, the wells were washed once with 150 μL PBS per well, and blocked with 120 μL of blocking buffer (1×PBS-T w/3% BSA) per well for 2 hours at room temperature. The blocking buffer was discarded and 30 μL solution containing #1 to #9 bispecific molecules (5-fold serial dilution) was added, followed by reaction for 1 hour at room temperature. Then, the wells were washed three times with 150 μL PBS per well. 30 μL of HRP conjugated anti-Human IgG1 Fc Ab diluted in the blocking buffer was added to each well, and reacted at room temperature for 1 hour. Thereafter, the wells were washed three times with 150 μL of washing buffer per well, the HRP reaction was developed using TMB, and the reaction was stopped with 30 μL 1 N HCl. Then, the optical density (OD) was measured at 450 nm.

[3] = target: T3, recombinant human B7-H3 protein (R&D Systems, Cat #1027-B3-100) (human, UniProt Q5ZPR3-2 29-245); assay: ELISA; plate-coated recombinant human B7-H3, bispecific titrated
T3 construct: Bought protein; also called CD276
T3 sequence (looked up): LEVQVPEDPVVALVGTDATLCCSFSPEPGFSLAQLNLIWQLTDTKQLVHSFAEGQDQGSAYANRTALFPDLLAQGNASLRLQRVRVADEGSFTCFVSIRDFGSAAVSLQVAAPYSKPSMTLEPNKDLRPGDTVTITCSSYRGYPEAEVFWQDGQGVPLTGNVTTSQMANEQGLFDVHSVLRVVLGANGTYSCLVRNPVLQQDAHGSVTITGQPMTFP
Method: After coating a plate with recombinant human B7-H3 protein (R&D Systems, Cat #1027-B3-100) (30 μL, 20 nM) in 1×PBS solution, the plate was covered and coated overnight at 2 to 8° C. Thereafter, the wells were washed once with 150 μL PBS per well, and blocked with 120 μL of blocking buffer (1×PBS-T w/3% BSA) per well for 2 hours at room temperature. The blocking buffer was discarded and 30 μL of antibody solution was added using a series of dilution solutions (using the blocking buffer, #1 to #9 bispecific molecules were diluted in serial by two times; 2-fold serial dilution), and reacted at room temperature for 1 hour, then the wells were washed three times with 150 μL of wash buffer per well. 30 μL of HRP conjugate of anti-HA Tag antibody diluted in the blocking buffer was added to each well, and reacted at room temperature for 1 hour. Thereafter, the wells were washed three times with 150 μL of washing buffer per well, the HRP reaction was developed using TMB, the reaction was stopped with 1 N HCl, and then the optical density (OD) was measured at 450 nm.
It was confirmed that #1 to #9 bispecific molecules specifically bind to B7-H3 with excellent binding force.

[4] = target: T4, recombinant human TGFβ2 (R&D Systems, Cat #302-B2-010/CF) (human, UniProt P61812 303-414); assay: ELISA; plate-coated bispecific, TGFβ2 titrated (EC50 is a TGFβ2 concentration), biotinylated anti-TGFβ2 detection
T4 construct: Bought protein
T4 sequence (looked up): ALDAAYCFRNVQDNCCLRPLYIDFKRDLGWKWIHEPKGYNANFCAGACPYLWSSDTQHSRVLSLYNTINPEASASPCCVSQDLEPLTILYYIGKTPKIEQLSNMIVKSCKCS
Method: After coating a plate with 1×PBS solution containing #1 to #9 bispecific molecules (30 μL, 0.5 μM), the plate was covered and cultured overnight at 2 to 8° C. Thereafter, the wells were washed once with 150 μL PBS per well, and blocked with 120 µL of blocking buffer (1×PBS-T w/3% BSA) per well for 2 hours at room temperature. The blocking buffer was discarded, recombinant human TGFβ2 (R&D Systems, Cat #302-B2-010/CF) was 4-fold diluted in serial from 30 nM. After adding each diluted solution to the wells by 30 μL per well, it was reacted at room temperature for 1 hour. Then, the wells were washed three times with 150 μL of washing buffer (1×PBS-T) per well, followed by diluting Biotinylated-TGF-beta2 antibody combined with the recombinant human TGFβ2 protein in the blocking buffer. After adding the diluted solution to the wells by 30 μL per well, it was reacted at room temperature for 1 hour. Further, after washing the wells three times with 150 μL of washing buffer (1×PBS-T) per well, 30 μL of streptavidin-HRP diluted in the blocking buffer was added to each well, and reacted at room temperature for 1 hour. After washing the wells three times with 150 μL of washing buffer (1×PBS-T) per well, HRP reaction was developed using TMB, and the reaction was stopped with 30 μL 1 N HCl. Then, the optical density (OD) was measured at 450 nm.

[5] = target: T1, recombinant human TGFβ1 protein (R&D …); assay: ELISA; plate-coated TGFβ1, bispecific titrated, anti-human IgG1 Fc-HRP
Method: as §1

[6] = target: T1, recombinant human TGFβ1 protein (R&D …); assay: bridging ELISA on plate-coated TGFβ1, detected with His-tag human B7-H3; paragraph 158 says the mono antibodies are not bound to TGFβ1

T1 sequence (P01137 279-390 limits assumed): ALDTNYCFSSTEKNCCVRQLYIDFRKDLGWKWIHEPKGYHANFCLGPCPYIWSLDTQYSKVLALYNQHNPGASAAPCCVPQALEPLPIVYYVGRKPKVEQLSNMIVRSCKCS

EC50 [1]: 1.98 nM | EC50 [2]: 2.94 nM | EC50 [3]: 1.72 nM | EC50 [4]: 2.08 nM | EC50 [5]: 3.41 nM
B1: #8 bispecific molecule (bispecific antibody, human IgG1, N297A)
heavy: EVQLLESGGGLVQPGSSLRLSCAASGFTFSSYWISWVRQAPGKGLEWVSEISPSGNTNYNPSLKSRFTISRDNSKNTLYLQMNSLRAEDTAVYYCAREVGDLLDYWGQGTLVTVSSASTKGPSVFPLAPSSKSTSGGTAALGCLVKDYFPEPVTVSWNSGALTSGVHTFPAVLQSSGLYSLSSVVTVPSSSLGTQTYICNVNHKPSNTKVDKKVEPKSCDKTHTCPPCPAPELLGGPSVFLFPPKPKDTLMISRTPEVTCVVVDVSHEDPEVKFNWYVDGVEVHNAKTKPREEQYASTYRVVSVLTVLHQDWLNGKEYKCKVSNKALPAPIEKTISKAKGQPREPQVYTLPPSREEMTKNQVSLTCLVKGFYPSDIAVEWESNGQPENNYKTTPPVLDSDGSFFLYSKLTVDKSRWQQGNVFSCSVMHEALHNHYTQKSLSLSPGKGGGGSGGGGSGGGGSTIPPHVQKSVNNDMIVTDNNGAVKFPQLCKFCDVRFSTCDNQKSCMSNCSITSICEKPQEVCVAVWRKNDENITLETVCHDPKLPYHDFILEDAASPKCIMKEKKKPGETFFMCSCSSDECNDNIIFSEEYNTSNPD
VL: QSVLTQPPSASGTPGQRVTISCSGSNIGNNYVSWYQQLPGTAPKLLIYQDSKRPSGVPDRFSGSKSGTSASLAISGLRSEDEADYYCLVWDRSSDHFVFGGGTKLTVL
notes: also called #8 (TRAP); B7-H3/TGFβ bispecific molecule #8

EC50 [1]: 2.11 nM | EC50 [2]: 3.8 nM | EC50 [3]: 5.94 nM | EC50 [4]: 0.076 nM | EC50 [5]: 4.39 nM
B2: #3 bispecific molecule (bispecific antibody, human IgG1, N297A)
heavy: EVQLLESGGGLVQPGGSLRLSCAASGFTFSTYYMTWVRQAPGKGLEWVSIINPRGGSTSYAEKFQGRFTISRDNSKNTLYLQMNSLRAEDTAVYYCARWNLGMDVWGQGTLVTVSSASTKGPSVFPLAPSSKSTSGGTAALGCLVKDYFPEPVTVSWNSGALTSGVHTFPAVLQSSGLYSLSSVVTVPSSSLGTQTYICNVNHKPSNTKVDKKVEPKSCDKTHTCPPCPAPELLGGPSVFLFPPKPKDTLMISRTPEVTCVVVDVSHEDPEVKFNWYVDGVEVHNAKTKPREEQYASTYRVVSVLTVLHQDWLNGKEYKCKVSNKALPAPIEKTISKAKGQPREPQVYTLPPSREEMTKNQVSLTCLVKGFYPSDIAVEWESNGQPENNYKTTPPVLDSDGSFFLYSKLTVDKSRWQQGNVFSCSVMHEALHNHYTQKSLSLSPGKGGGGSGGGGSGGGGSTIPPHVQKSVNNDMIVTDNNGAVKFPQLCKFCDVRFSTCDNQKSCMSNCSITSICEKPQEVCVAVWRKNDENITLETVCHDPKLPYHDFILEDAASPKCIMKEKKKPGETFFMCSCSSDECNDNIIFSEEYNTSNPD
VL: EIVLTQSPGTLSLSPGERATLSCRVSQSISSYLNWYQQKPGQAPRLLIYDASHRATGIPDRFSGSGSGTDFTLTISRLEPEDFAVYYCQQYYAPSVTFGQGTKVEIK
notes: also called #3 (TRAP); B7-H3/TGFβ bispecific molecule #3

binding result [6]: no binding
B3: #3 (mono) B7-H3 mono antibody free of TGFβ binding portion (antibody, human IgG1, N297A, V domains shown)
VH: EVQLLESGGGLVQPGGSLRLSCAASGFTFSTYYMTWVRQAPGKGLEWVSIINPRGGSTSYAEKFQGRFTISRDNSKNTLYLQMNSLRAEDTAVYYCARWNLGMDVWGQGTLVTVSS
VL: B2 VL

EC50 [1]: 1.96 nM | EC50 [2]: 3.32 nM | EC50 [3]: 29.3 nM | EC50 [4]: 0.13 nM | EC50 [5]: 2.02 nM
B4: #4 bispecific molecule (bispecific antibody, human IgG1, N297A)
heavy: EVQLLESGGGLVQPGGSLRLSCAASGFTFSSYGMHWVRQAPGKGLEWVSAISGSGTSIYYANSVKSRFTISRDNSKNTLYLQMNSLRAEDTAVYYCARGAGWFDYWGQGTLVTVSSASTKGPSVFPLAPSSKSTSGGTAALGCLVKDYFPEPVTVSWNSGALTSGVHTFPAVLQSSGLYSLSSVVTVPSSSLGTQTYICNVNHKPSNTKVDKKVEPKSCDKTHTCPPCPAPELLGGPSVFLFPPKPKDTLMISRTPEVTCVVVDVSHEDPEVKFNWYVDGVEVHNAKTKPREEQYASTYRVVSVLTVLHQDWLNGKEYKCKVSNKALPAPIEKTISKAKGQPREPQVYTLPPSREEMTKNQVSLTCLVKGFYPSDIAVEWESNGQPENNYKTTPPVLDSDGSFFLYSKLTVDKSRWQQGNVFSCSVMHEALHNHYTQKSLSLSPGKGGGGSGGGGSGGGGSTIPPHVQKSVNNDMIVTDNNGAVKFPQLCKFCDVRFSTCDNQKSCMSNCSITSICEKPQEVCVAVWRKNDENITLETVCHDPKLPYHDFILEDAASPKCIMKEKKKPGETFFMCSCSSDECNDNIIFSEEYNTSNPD
VL: QSVLTQPPSASGTPGQRVTISCSGSTSNIGSNTVNWYQQLPGTAPKLLIYGKNIRPNGVPDRFSGSKSGTSASLAISGLHSEDEADYYCQSYDSSLSGWVFGGGTKLTVL
notes: also called #4 (TRAP); B7-H3/TGFβ bispecific molecule #4

binding result [6]: no binding
B5: #4 (mono) B7-H3 mono antibody free of TGFβ binding portion (antibody, human IgG1, N297A, V domains shown)
VH: EVQLLESGGGLVQPGGSLRLSCAASGFTFSSYGMHWVRQAPGKGLEWVSAISGSGTSIYYANSVKSRFTISRDNSKNTLYLQMNSLRAEDTAVYYCARGAGWFDYWGQGTLVTVSS
VL: B4 VL

EC50 [1]: 3.83 nM | EC50 [2]: 4.72 nM | EC50 [3]: 27.5 nM | EC50 [4]: 0.136 nM | EC50 [5]: 3.84 nM
B6: #1 bispecific molecule (bispecific antibody, human IgG1, N297A)
heavy: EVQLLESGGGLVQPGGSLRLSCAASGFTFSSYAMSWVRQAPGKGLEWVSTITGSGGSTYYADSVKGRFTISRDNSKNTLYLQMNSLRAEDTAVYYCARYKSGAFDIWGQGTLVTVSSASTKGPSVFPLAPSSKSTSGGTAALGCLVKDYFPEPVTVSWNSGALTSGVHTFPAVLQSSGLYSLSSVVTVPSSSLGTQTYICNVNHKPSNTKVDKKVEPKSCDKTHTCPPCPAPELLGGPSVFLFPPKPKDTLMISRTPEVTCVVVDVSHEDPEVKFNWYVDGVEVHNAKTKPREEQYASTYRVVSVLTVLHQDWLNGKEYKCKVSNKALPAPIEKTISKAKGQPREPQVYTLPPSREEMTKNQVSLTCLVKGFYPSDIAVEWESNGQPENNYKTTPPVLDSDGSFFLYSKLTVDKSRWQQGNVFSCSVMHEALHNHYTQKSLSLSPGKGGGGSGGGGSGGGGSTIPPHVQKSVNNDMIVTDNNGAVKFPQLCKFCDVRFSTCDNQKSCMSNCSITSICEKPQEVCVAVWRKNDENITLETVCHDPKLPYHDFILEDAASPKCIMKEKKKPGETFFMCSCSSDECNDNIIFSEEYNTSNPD
VL: EIVLTQSPGTLSLSPGERATLSCRASQGIGNYLGWYQQKPGQAPRLLIYTASSLQSGIPDRFSGSGSGTDFTLTISRLEPEDFAVYYCQQGYSTPSWTFGQGTKVEIK
notes: also called #1 (TRAP); B7-H3/TGFβ bispecific molecule #1

binding result [6]: no binding
B7: #1 (mono) B7-H3 mono antibody free of TGFβ binding portion (antibody, human IgG1, N297A, V domains shown)
VH: EVQLLESGGGLVQPGGSLRLSCAASGFTFSSYAMSWVRQAPGKGLEWVSTITGSGGSTYYADSVKGRFTISRDNSKNTLYLQMNSLRAEDTAVYYCARYKSGAFDIWGQGTLVTVSS
VL: B6 VL

EC50 [1]: 1.43 nM | EC50 [2]: 7.92 nM | EC50 [3]: 3.19 nM | EC50 [4]: 0.14 nM | EC50 [5]: 5.83 nM
B8: #2 bispecific molecule (bispecific antibody, human IgG1, N297A)
heavy: not shown
VL: EIVLTQSPGTLSLSPGERATLSCHASQGISNYVAWYQQKPGQAPRLLIYDASNRATGIPDRFSGSGSGTDFTLTISHLEPEDFAVYYCQQSYSTLLTFGQGTKVEIK
notes: also called #2 (TRAP); B7-H3/TGFβ bispecific molecule #2

binding result [6]: no binding
B9: #2 (mono) B7-H3 mono antibody free of TGFβ binding portion (antibody, human IgG1, N297A, V domains shown)
VH: EVQLLESGGGLVQPGGSLRLSCAASGFTFSAYYMIWVRQAPGKGLEWVSITNPSGGVTSYAQKFQGRFTISRDNSKNTLYLQMNSLRAEDTAVYYCARVGGRGFDIWGQGTLVTVSS
VL: B8 VL

EC50 [1]: 2.21 nM | EC50 [2]: 4.56 nM | EC50 [3]: 1.34 nM | EC50 [4]: 0.083 nM | EC50 [5]: 9.08 nM
B10: #6 bispecific molecule (bispecific antibody, human IgG1, N297A)
heavy: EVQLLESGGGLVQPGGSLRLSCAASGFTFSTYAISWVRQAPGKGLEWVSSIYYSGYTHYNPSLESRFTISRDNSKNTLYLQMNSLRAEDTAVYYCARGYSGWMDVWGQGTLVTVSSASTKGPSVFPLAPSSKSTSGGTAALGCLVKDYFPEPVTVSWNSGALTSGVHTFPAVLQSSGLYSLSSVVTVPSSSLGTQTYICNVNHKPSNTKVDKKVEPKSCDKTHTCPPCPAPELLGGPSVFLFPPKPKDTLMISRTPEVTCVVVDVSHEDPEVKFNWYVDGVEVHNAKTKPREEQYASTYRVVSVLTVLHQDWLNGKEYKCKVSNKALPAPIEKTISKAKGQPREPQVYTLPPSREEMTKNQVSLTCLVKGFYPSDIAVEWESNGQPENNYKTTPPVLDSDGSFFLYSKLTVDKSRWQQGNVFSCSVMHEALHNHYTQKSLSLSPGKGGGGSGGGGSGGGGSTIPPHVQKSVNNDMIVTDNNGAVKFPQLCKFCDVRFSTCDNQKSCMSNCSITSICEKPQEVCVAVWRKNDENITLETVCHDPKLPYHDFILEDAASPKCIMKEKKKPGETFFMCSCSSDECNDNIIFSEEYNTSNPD
VL: QSVLTQPPSASGTPGQRVTISCGGNNIGSKSVHWYQQLPGTAPKLLIYDNNKRPSGVPNRFSGSKSGTSASLAISGLRSEDEADYYCAAWDDSLNVPVFGGGTKLTVL
notes: also called #6 (TRAP); B7-H3/TGFβ bispecific molecule #6

EC50 [1]: 1.56 nM | EC50 [2]: 5.98 nM | EC50 [3]: 6.11 nM | EC50 [4]: 0.143 nM | EC50 [5]: 3.94 nM
B11: #9 bispecific molecule (bispecific antibody, human IgG1, N297A)
heavy: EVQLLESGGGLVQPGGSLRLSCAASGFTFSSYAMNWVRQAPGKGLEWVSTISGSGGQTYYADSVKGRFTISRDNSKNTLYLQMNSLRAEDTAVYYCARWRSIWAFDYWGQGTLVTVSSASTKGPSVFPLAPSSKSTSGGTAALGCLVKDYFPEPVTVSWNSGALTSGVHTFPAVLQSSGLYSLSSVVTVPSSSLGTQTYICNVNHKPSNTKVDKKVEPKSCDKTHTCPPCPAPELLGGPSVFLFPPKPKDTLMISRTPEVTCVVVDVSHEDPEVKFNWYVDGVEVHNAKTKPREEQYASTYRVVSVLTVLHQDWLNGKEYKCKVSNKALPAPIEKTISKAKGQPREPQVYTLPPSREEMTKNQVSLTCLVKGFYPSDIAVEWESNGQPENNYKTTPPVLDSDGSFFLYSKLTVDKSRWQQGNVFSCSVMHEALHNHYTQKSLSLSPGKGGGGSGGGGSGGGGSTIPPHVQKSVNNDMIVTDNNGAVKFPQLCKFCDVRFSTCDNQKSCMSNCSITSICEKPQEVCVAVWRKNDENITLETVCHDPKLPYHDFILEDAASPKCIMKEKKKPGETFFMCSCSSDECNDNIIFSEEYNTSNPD
VL: B10 VL with G23S, G24D, N59D, A88G, A89T, N95S, V96G
notes: also called #9 (TRAP); B7-H3/TGFβ bispecific molecule #9

EC50 [1]: 3.15 nM | EC50 [2]: 8.09 nM | EC50 [3]: 12.2 nM | EC50 [4]: 0.12 nM | EC50 [5]: 24.8 nM
B12: #7 bispecific molecule (bispecific antibody, human IgG1, N297A)
heavy: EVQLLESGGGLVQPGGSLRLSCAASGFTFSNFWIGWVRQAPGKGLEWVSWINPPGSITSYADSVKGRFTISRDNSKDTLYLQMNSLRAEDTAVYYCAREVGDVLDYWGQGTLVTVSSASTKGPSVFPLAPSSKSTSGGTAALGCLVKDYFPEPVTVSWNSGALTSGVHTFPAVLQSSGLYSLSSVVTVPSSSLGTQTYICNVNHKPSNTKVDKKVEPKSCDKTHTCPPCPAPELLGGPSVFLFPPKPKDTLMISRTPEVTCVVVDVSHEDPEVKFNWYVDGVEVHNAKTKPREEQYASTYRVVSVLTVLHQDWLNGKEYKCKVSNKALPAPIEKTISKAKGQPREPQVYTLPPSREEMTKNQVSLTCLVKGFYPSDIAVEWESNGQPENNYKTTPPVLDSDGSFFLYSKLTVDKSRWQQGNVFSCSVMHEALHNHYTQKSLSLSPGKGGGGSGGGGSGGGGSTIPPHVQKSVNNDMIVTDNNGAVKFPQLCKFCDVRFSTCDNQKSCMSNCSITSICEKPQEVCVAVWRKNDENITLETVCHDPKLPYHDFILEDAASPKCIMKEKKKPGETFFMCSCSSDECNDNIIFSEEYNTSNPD
VL: QSVLTQPPSASGTPGQRVTISCTGTSSDIGRYNYVSWYQQLPGTAPKLLIYRNTQRPSGVPDRFSGSKSGTSASLAISGLRSEDEADYYCGTWDSSLNAYVFGGGTKLTVL
notes: also called #7 (TRAP); B7-H3/TGFβ bispecific molecule #7

EC50 [1]: 3.74 nM | EC50 [2]: 3.14 nM | EC50 [3]: 10.2 nM | EC50 [4]: 0.143 nM | EC50 [5]: 3.62 nM
B13: #5 bispecific molecule (bispecific antibody, human IgG1, N297A)
heavy: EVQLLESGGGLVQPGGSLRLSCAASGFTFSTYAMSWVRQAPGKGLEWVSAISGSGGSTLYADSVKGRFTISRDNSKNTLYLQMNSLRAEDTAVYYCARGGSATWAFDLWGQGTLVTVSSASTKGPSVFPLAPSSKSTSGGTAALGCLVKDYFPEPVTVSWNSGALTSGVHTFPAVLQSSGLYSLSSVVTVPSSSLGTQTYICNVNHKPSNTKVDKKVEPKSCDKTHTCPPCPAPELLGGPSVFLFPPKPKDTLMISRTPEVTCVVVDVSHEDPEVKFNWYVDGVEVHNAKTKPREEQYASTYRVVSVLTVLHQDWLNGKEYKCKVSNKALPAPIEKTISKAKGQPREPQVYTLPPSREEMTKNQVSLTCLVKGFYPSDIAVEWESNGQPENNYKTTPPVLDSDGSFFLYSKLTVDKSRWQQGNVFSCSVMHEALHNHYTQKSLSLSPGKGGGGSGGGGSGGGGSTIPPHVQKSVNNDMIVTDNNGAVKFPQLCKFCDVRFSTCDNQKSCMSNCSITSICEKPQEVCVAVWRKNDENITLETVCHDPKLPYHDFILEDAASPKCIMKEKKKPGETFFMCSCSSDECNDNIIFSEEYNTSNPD
VL: QSVLTQPPSASGTPGQRVTISCSGSSSNIGSNYVYWYQQLPGTAPKLLIYRNNQRPSGVPDRFSGSKSGTSASLAISGLRSEDEADYYCGTWDSSLSGVVFGGGTKLTVL
notes: also called #5 (TRAP); B7-H3/TGFβ bispecific molecule #5
